Positions count from the first letter of the chain named. One block for each molecule: values may come before it.
Tests used:
[1] = target: human OX40 receptor (CD134), full length, on the cell surface (human) (UniProt P43489); test: cell-based or functional assay
[2] = target: T1, human OX40 (form used in the assay not stated) (human, UniProt P43489 29-214, limits assumed); test: OX40 binding titration with OD readout (assay format and form of OX40 not described); x axis 'Log concentration, µg/ml Fab'
T1 sequence (looked up): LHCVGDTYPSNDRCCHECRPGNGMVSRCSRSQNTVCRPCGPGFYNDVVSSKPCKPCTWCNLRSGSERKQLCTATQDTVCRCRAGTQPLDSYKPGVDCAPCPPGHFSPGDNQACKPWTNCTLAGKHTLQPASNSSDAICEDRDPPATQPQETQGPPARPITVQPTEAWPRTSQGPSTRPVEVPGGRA

[3] = target: T2, murine OX40 (form not stated) (mouse, UniProt P47741 20-211, limits assumed); test: not described (observation cited in Example 8)
T2 sequence (looked up): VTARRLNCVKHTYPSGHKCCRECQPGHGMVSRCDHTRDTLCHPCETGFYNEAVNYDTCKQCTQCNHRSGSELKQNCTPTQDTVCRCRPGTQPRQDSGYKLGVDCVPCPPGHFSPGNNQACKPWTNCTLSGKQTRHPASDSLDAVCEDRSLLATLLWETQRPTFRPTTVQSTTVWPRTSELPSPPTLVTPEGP

[4] = target: T1, human OX40 (form used in the assay not …); test: Biacore, format not described

Kd [4]: 1.12 nM
koff [4]: 0.000158 s⁻¹
kon [4]: 141000 M⁻¹ s⁻¹
B2: humanized A10 whole antibody F (A10 LC (TH) hu 336 / A10 humanized) (antibody, V domains shown)
VH: QVQLVQSGAEVKKPGASVKVSCKASGYTFTSYWMHWVRQAPGQGLEWMGEIHPKSGNSNYNEKFKGRVTMTRDTSTSTVYMELSSLRSEDTAVYYCARGPEYSNFWFAYWGQGTLVTVSS
VL: DIVLTQSPTSLAVSLGQRATISCKASQTVDYDGDSYMHWYQQKPGQPPKLLIYAASNLESGVPDRFSGSGSGTDFTLTISSLQAEDVAVYYCHQSNEDPWTFGQGTKVEIK
notes: also called A10-F; humanized variant A10-F

Kd [4]: 1.44 nM
koff [4]: 0.000151 s⁻¹
kon [4]: 116000 M⁻¹ s⁻¹
B4: humanized A10 whole antibody C (A10 LC (TH) hu 336 / A10 L70) (antibody, V domains shown)
VH: B2 VH with M70L
VL: B2 VL with L4M, T9D, Q17E, S22N

Kd [4]: 1.25 nM
koff [4]: 0.000191 s⁻¹
kon [4]: 151000 M⁻¹ s⁻¹
B5: humanized A10 whole antibody E (A10 LC (SN) / A10 humanized) (antibody, V domains shown)
VH: B2 VH
VL: B2 VL with L4M, T9D, Q17E, S22N, T28S, H38N

Kd [4]: 1.21 nM
koff [4]: 0.00017 s⁻¹
kon [4]: 140000 M⁻¹ s⁻¹
B6: humanized A10 whole antibody D (A10 LC (SH) / A10 humanized) (antibody, V domains shown)
VH: B2 VH
VL: B2 VL with L4M, T9D, Q17E, S22N, T28S
notes: also called A10-D; A10 D

The next lines start with the molecule.

Molecule: OX40 ligand (OX40L) on transfected mouse L fibroblasts
CMP Mean (n: 3), proliferation, Th17 cells + OX40L L-cells [1]: 66000 CPM
IFN-γ Conc (pg/ml), Th1 cells + OX40L L-cells [1]: 33000 pg/mL
IL2 (pg/ml), OX40-Hut-78 + OX40L-L-cells, no antibody [1]: 138 pg/mL
IL13 (pg/ml), OX40-Hut-78 + OX40L-L-cells, no antibody [1]: 620 pg/mL
IL-17 Conc (pg/ml), TH-17, CD4+ cells/OX40L L-cells [1]: 2260 pg/mL
Survivin expression (%), Th17 cells + OX40L L-cells [1]: 49%
TH17 Survival (%), Th17 + OX40L-L-cells [1]: 39.2%
Th1 Survival (%), naïve CD4+ T-cells + OX40L L-cells [1]: 65.9%
Th17 proliferation, fold against culture without OX40L costimulation [1]: 4 fold
Th-17 Survival (%), Th17 cells + OX40L L-cells [1]: 84.3%

B1: humanized anti-OX40 antibody A10(TH)hu336F (antibody, V domains shown)
VH: B2 VH
VL: B2 VL
notes: also called humanized clone A10(TH)hu336F; 'humanized' A10 molecule
EC50 (read off the curve) [2]: ~9 ng/mL
binding result [3]: no binding

B3: humanized A10 whole antibody B (A10 LC (SN) / A10 L70) (antibody, V domains shown)
VH: B2 VH with M70L
VL: B2 VL with L4M, T9D, Q17E, S22N, T28S, H38N
Kd [4]: 0.94 nM
koff [4]: 0.000156 s⁻¹
kon [4]: 170000 M⁻¹ s⁻¹

B7: humanized A10 whole antibody A (A10 LC (SH) / A10 L70) (antibody, V domains shown)
VH: B2 VH with M70L
VL: B2 VL with L4M, T9D, Q17E, S22N, T28S
Kd [4]: 1.38 nM
koff [4]: 0.000179 s⁻¹
kon [4]: 131000 M⁻¹ s⁻¹

— patent publication US20100136030A1 (published 2010)
